# Source: patent publication US9486519B2, “Use of FLT3 ligand for enhancing immune responses in RNA immunization” (BioNTech AG, priority 2008, dated 2016)
# “Also recorded” adds a separate entry of the source.
# B1: Flt3L-IgG4: recombinant human Flt3 ligand prepared as a fusion protein with IgG4, SEQ ID NO: 6, expressed in HEK293 cells (protein)
# chain: MTVLAPAWSPTTYLLLLLLLSSGLSGTQDCSFQHSPISSDFAVKIRELSDYLLQDYPVTVASNLQDEELCGGLWRLVLAQRWMERLKTVAGSKMQGLLERVNTEIHFVTKCAFQPPPSCLRFVQTNISRLLQETSEQLVALKPWITRQNFSRCLELQCQPDSSTLPPPWSPRPLEATAPTAPQPPRSPPCPSCPAPEFLGGPSVFLFPPKPKDTLMISRTPEVTCVVVDVSQEDPEVQFNWYVDGVEVHNAKTKPREEQFNSTYRVVSVLTVLHQDWLNGKEYKCKVSNKGLPSSIEKTISKAKGQPREPQVYTLPPSQEEMTKNQVSLTCLVKGFYPSDIAVEWESNGQPENNYKTTPPVLDSDGSFFLYSRLTVDKSRWQEGNVFSCSVMHEALHNHYTQKSLSLSPGK
# modifications: Fusionsprotein
# Experiments:
# [1] = system: RNA uptake in the lymph nodes; assay: Effect of Flt3-L on RNA uptake in lymph nodes, in-vivo bioluminescence; design: species or system C57BL/6 mice; settings: 10 μg i.p. day 0 and 3; 20 μg luciferase-RNA intranodally day 10
# Experimental: (f) Effect of Flt3-L on RNA uptake. C57BL/6 mice (n=8) were treated i.p. on day 0 and 3 with 10 μg, Flt3-L, or were not treated in the control group. On day 10 the mice were injected intranodally with 20 μg luciferase-RNA. 24 h later the luciferase signal was measured by in-vivo bioluminescence.
# C57BL/6 mice (n=8) were treated i.p. on day 0 and 3 with 10 μg Flt3-L or were not treated in the control group. On day 10 the mice were injected intranodally with 20 μg luciferase-RNA. 24 h later the luciferase signal was measured by in-vivo bioluminescence. […] The bars give the mean value of all measured values for a group. The experiment is representative for 3 independent experiments. Statistics: Student's t-test.
# [2] = system: antigen-specific CD8+ T lymphocytes; assay: Effects of different Flt3L on the stimulation of naive T cells, MHC multimer measurement in peripheral blood; assay type: in vivo, C57BL/6 mice; settings: 0.4 mol i.p. day 0, +3; 20 μg SIINFEKL coding RNA day +7, +10; blood day +15
# Experimental: (§1) These mice were immunized intralymphatically on day +7, +10 with 20 μg […] coding RNA. The control group remained untreated (n=2). On day +15 the frequency of antigen-specific CD8^+ T lymphocytes was measured in peripheral blood by means of MHC multimer measurement.
# To this end a product recombinantly expressed in bacteria (Peprotech Flt3L) and a product expressed in human HEK293 cells (Humanzyme Flt3L) was used; cf. Example 7. Human IgG4 served as control.
# as §1, with “measured by flow cytometry” for “measured”, “measurement (Beckman Coulter).” for “measurement.”
# The mice were administered intraperitoneally Flt3L in equimolar amounts (day 0, +3). In addition, mice were immunized intranodally twice with […] coding RNA (+7, +10). The success of the immunization was quantified by flow cytometry on day +15 by means of tetramer staining.
# [3] = system: lymph nodes and spleen; assay: Cellularity of lymph nodes and spleen after i.p. Flt3-L; assay type: in vivo, C57Bl/6 mice; settings: 2x, 3x, 5x 10 μg i.p.; 10-12 days after the first injection
# Experimental: C57Bl/6 mice (n=3-9) were administered 10 μg Flt3L intraperitoneally at different timepoints (d1 to d3 or d1, d1, d3 or d0, d3). On day 10 the lymph nodes (LN) and the spleen were removed and the cell count was determined. The data shown represent the average cell count +SEM of the lymph nodes. *: p<0.05 in Tukey's multiple comparison test.
# To test the effects of application of human Flt3 ligand on the efficiency of RNA-based immunizations, the changes in the cellular composition of lymph nodes and spleen were first investigated in the mouse model. For this, various application schemes (2×, 3×, 5×10 μg) of recombinant Flt3-L were applied intraperitoneally and the cellularity was determined 10-12 days after the first injection. […] This increase could be shown for all relevant subpopulations of the dendritic cells in spleen and lymph nodes (FIG. 2).
molecule,measurement,setting,value
B1,RNA uptake in the lymph nodes (in-vivo bioluminescence),[1],does not have an inhibitory effect
same,adjuvant effect (frequency of antigen-specific CD8+ T lymphocytes),[2],significant adjuvant effect; also recorded: strongest effect
same,cellularity in spleen and lymph nodes,[3],increase in cellularity in spleen and lymph nodes
